In the NTF2 design screens of Basanta et al. (2020):

Assay: protease stability score; higher = more stable; yeast display proteolysis, trypsin and chymotrypsin;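 also: log10 excess protease needed over predicted unfolded state with 0 meaning unfolded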

Going from “DEKLLELAKKMRRAEETGDEDQLREMADKDAKFDIGDKRIHGMDTFVRQIKHELDKMRREITSVEFRVEGEEVVIHVHWVYSHNGQPRTKEYTMKFEIRGDKIKDLHIDNRG” to “DEKLLKRLEEFWKAVRKGNKQEIEEYADPNVRFQIGDKQVHGRENAKKYFHDERREIRIEYHDLKVRVRGDRIEIRYTVQYTHNGQPTERHYDIEIVLNGEKMKSMSVRTDR”, the protease stability score falls from 0.007 to -0.026.

Compared with “DEKMLQHMEDALRRNDEQRLVELVDEDVKIKIGDRDVHGSERAQKIAETRKERIDSQDFKSMDLSGNKVTVDRVVVVNGVKFRVVVIYELSNGRIKRIEVRVTDEENKRRLQKQLS”, “DEKNDRVLRRVMEAIHRGDPDKIHNQLDPNVKAEVGDKRFHGMEHIVEQVKRNWDNMRMRMKDVTVEDHNGQANAKVTYEVTENGQPKRAHVTVQAHAHDGRLTSVTYDTHE” is lower in protease stability score: 0.63 for the first, -0.371 for the second.

Going from “DEKNEDAARKLFNAWKQNDPDHARKLADPNVRFKYGDTQVHGRDQYARELRETNKQMRLEYKHVTIRVKNGNAEVNMNVRYNHNGQPRESTRRMTFKVENGKLVDVDIKTDK” to “DEKNLNQLKDLIKTNDEERIHELMDPNVRLVIGDQEVQGRENVFKVLKRWRERADHVRYNDLKLHDGRAFADVEINVNGENIRVHYVYVAHNGRIKEIKVTATDEDEQRKVEDNYK”, the protease stability score rises from 0.133 to 1.37.

First: DEKNMRVVETYLKALTRGDPDQAMRQVDEDVELTVGDKEVKGREEFSKLVKKWQDQARFSLQIHRVKVHENHVNINAEVTWDVNGKPQSFSHIIHARVHNGRIKHMSWEVPTEEWQNIEK
Second: DEKNSKLAKDFFEAIESNNPEHAKELADENARYQVGDKQLHGMDEVLKHIKRENERAQVTVSSMTFRISNGRVEVHMDVQRDDNGDPDKKNLVVNFHFRNGKIKEVQDKNDS
The protease stability score of the first is higher: 1.29 for the first, 0.614 for the second.

Compared with “DEKQADRAEKFMRALNEGNEDQATRLFDPNAHVVYGDTEVHGRERIRETIRNLQREMSVRYEVHRIEDRNGHVNLHADVTLQHNGRPARYVLTINVRADNGTIVSLNMRVPEEEKEKMKG”, “DEKQAKELADEYIKAFEEGDPDKHQELVDKDAQVNYGDKTLHGREEFRKLVEELRRQADHISVHNVDYQGNKVVVHYVVDVNGHKVELSYTVQYHDGRMKQASVSYRSEDLKREQEQ” is higher in protease stability score: 0.15 for the first, 0.384 for the second.

Going from “DEKQAKKVLKQMVKAVFNNDEELLKKLGKEDVEVQFMDTKYKGPDQLKKILEQYKRYGIEFHIKKTKVEGDKMQVHAQVHLADNTADVTAEYQADNGKVDHTRVQFSDTAKEVFKKG” to “DEKQALDVAHEAARAVAEGDDQKLREHMDPNATMEYGDKQVHGRENIMRVAKEFRDRADNVEIKSVHLTGNKVNVHVLLTHNGHTQRVRIDAKAHNGRVKSIRLDDK”, the protease stability score rises from -0.003 to 1.06.

First: DEKQDKHYKKMMDEGDWKHFANNADPNARVDIGDKEYHGREQVNKALRRISEQADDFRVHDVQVENGRVRADVEFHVNGRSLKVDIRAVLHNGEVTHFHMSVTSEEVKQMLREIFD
Second: DEKQDRDIQRVLHDNNPDHMKKLVDENAHAQVGNKTYHGREQVLTLIEHMVRTVDHMSIDKVEVKNGKADMDYHVNINGQSARVRVDVKFHNGRIKEIRIQATDKEVRDILDEAFD
The protease stability score of the first is lower: 0.289 for the first, 1.23 for the second.

Compared with “DEKQKKDLLKQAVEMYLSGNSEEVRKLLKDDGEVEAGDQTYKGVEQVMKVVEQFKRYGVKLQMTDLKVDGDTVKVKAKLQNGGKTWEFEVTAQADGGKVDKITFKYSEEAKEDIEKG”, “DEKQLHRVRHFLEVVRQGDEDNLREMADPNVRMVVGDKQFHGREEAVKFLVHKAKELRIDVKFKTINVRGDKVKAVAEMTENQNGKPHHAKLTWEIQMSNGKIQQLDFKLST” is higher in protease stability score: -0.056 for the first, 0.275 for the second.

Going from “DEKQLKHVQEWVETGDPDQFARNADPNAEIQIGNTTWQGREEIQKLAHRLKKQVDTQELKDIQVHGDHVLVNRVMEWDGHTFEFSMHIKVQNGRIKSVDVKVRDPSQQKELEDHLS” to “DEKQLKKAADRMVKAMETGDPQQINRMADENVRVEVGDKRISGEEDINRWLKELSDQADHARVKSIDASGNTVRVEMTIVVNGRETKLTIHVHFENGTAHHVRFQKS”, the protease stability score rises from -0.087 to 0.223.

Compared with “DEKQLTLLRRIFEALLRNDEDKLKDLLDPNVKVRYGDKDLHGRENVAESIVRTNQEARFHVRRVTFRDHNGQAKVKVDFDQQHNGQPRSARLDVSMQRHNGRVKSISFKVDT”, “DEKQLVEVIREVIKALQQGHRDKVKKLGGPNVEVQAADYRNKGPEAILHMAEIVQRIGDEFQYRRTEQKGGTVTTTVEVHVGGHTVRYEVNAEAEGGKLKYWQADDDDKFIQHVKES” is higher in protease stability score: 0.649 for the first, 0.725 for the second.

Going from “DEKQMEQVNKNMETGDWDKLQEQADEDVRLVVGEREFHGREQFSEFAKQAKRMVDDNTIHRIDLQGEKVKIKFVIKHNGRTVDVTVVMEVHNGRIKRYVLRARDEDAEDIIRKMLS” to “DEKQMRSVTKFIRVLQHGDNNQLRRLADPNAKARVGEKDVTGMDDILTRWVTFVEQARVKIDIREMDVSNGKVVIDAHIEIDINGRPLRDKITIIAEYRNGRLKFLELHVDQDFMRKVKR”, the protease stability score falls from 0.902 to 0.223.

Compared with “DEKQNAEKVMTDVERNLREGDDNKIKEMADKDAKADVGEKKVTGREDIAKMLATLNKSVDEVTLDLKHVTTQGDFLNVKADIKWRHNGTTRQNKVEMWVNDFNGNVVIKHLRIG”, “DEKQNDVVDDFMRAVREGDPTQLKSLVDPNARIQIGDRTYTGMEEYVTHVHKDLRKMRIEIRIKDIKAHNGHARIEFEVINTDNGRPDKKRMDVEFRIHNGKLKEAQYKSDR” is lower in protease stability score: 1.08 for the first, 0.766 for the second.

First: DEKQNNHFKDLMETNDWTQIAKQADENAKAKYGDKTVHGRENITHNNRRIKNRVDEMRIRNLTLEPNRIVQNFVVRVNGQDAQAVMTLEFENGRVKSVKLQARDTRVEEVLRKMMQ
Second: DEKQNQEMQDMLHTGDFKRIADLVDENAEWNYGDKTYHGRKTIKKFLDAFQHRADHVEVKRFDVHNGHVSANMQMNVDGRRIDFRVVVHVENGRVKEYRMDFTDPRQQREVERQVE
The protease stability score of the first is lower: 0.465 for the first, 0.745 for the second.

Going from “DEKQQARDLVKELRDALKHGNEKQVVKMADENAKLQVGDKKVHGRKDIDKWAKDLRDRVDHVRLEVRSIDVHNGRMKFTATFTETHNGRKKERTMTMRARIQGDKFKIQQINLS” to “DEKQVHKMARQLVKALEHNDPQKVADLVDENVRASIGDTEYHGREHVKKAIKQMVDSIDHMRVRTVTAHNGTIDIDFQVVVNGRTERYQMRAEVHNGRIQSLRVDKR”, the protease stability score rises from 0.247 to 2.02.

Compared with “DEKQVLELIRDVMKHVQNGNQEEVKKHGKPSVEVILFNERYTGPEALVRLAEFAQKLGAQFEYKETRHEGNKVKTKVEVTFGGTTVRYEVEVEAEGGKVVKWEVRASDEFDERVKKS”, “DEKQVVKVAKRVVQAVFEGDEELMKKMGKEDVEVEVGDTKYKGVDQAVDLVRKYKEFGLEFELKKYEVKGDTVTFHAKLYAGDKTIDVTVHYRADDGKMDETKVELSEEADKAFKQH” is higher in protease stability score: 1.09 for the first, 1.1 for the second.

Compared with “DEKRAHDFAQQVIRVIQDGDPREAQKLADENVRVEYGDRTVHGKEQISNFAQEFRTRVDHVKIDTWHAQGDKIVIHLKVNVNGREKRVVVVVEVHNGRVKSLVYKDG”, “DEKRALEVIKRYAEYLKRGNADEARKMGKEGVEAEFGDTHVHGADQVKEYVKKVKDVGAHVEYKEVEYKGDTVTVKTEVTRGDAKVTFEVKYQAKGDKVVNLEMKFNKEQMKEFKKS” is lower in protease stability score: 1.24 for the first, -0.015 for the second.

First: DEKRARKLLEKAFELVQKGNKDTMRKIGKPNVKYKYVDQEYEGPEAMKFVIDVVKKIGAEVKKQEVEVKGDTAKATFQYRQGDKTVETRVEVKYEGDKLKEVRVEATDEVKKLVHQG
Second: DEKREKDVAENFNTILENNDPDNLRKQAPPEAHAVIGDTRYRGMETFVTIMKKMWDEVDHFTVDDYQVQNGRVTIQAHVQVNGRQVTLHLEMIIDNGHITHIRMDPRQYRQFEG
The protease stability score of the first is higher: 0.009 for the first, -0.434 for the second.

Going from “DEKREQELAKKFADVFQRNNESELRKMIDENARYEIGDKTYRGTKAVKHVMKKVHDRADHVQVENFKAHNGTMELYLRYHVNGQDVRIIIELELRNGKVQHARYDVTSEEDRHNVEN” to “DEKRFTELAEKAFKIIMNGNEEEARKMGKPNVEYKYGDKEFEGEEAMQYAVQLVIKVGAEAKVRRMEVRGDTMRADFQYTLGDKTVQTTAQVQYEGDYAKKAENELSDEAKKIMHQG”, the protease stability score rises from 0.041 to 0.434.

Going from “DEKRLKELLEHVFKQVMNGNEEEVLKHGKPDVQYEYLTKRYEGEDAMRVVIKKIKRIGAEVQVKRREVHGNTMRADFDYHKGDQTVRTTAEAKYEGDQVKEFRVKVTEEHKQVIHQG” to “DEKRLKEVAKKVFEAVQKGDTEKLKKLGKEDGKFQFLDHRYKGKEEYARIMQKLKKHGVQFEIKKYQVKDNKVRMETVVTYGDQTFTVEAEARYEGGQLDEARVEMTEEAKERLKQG”, the protease stability score falls from 0.104 to -0.084.

Going from “DEKRLREIATRIVDALKTNNPEDFQKQLDEDAEVSIGDKTVRGQKQIVKMMDEFNSRVDEIDFKSYTAEGNQVVVNAVFNHNGRQQHLHFVFVFHNGKAKTVKAESS” to “DEKRLTELLEVMKHGDFDRLANLMDKDVRIEYGDKSVRGREQAQHLMEKQKKRADHVEWKEYHFQGDTVSVRLVVRINGKEVEYHQTYRVNNGKITDMEQRARDEDDERQLRRVEG”, the protease stability score falls from 1.12 to -0.093.

Going from “DEKRMKELMDKVFRLVMEGNEEDVVKMGAPDVKYKYADHEYKGPEVMKEVAVMVRRLGAEVRVKRKEVHGDTAQADFDYRKGDTTVRTTARVKYEGDKVKRAEVEVSDEVKKIVHQG” to “DEKRMLKVAKEVAEMVRRGDADRVHKYLKEGGRAEVGDTEINGPDQMKEYVKKVKDQGAHNEYKETEYKGDTMTIKTQAHLGDATVDFEVHYQVKGDKVERVEVRFNKEQLKKFKDS”, the protease stability score falls from 0.144 to -0.087.

First: DEKRMVELMRKIFKTIINGNEDEVKKILPPHGEYHYIDKKFEGKEVAEYIIKLVKKMGAEAKVKEQEVKGDTAKATFQYRKGDKTVQTKAEVKYEGDKMKKARVENTDEVRKVVHQG
Second: DEKRQAKEYVKHFDEVIETNDPDQLNELMDKDVRLDIGETKVSGRDDAKKWAKELVDQIDHVRVNVRKVDVQGDTIKVEVDIQIQYNGRHEQRVLHFTAVLSNGRAKIKRFTVE
The protease stability score of the first is lower: -0.024 for the first, 0.559 for the second.

Compared with “DEKRQQDQAKKIADALSTGDEDQFLQNMDPNAHVRVGDKTFHGRDDVRRMLREVNEHVDEINVHDVSVHNGQVDAVLVWEHNGRKQRKKVVVDRHNGRVHSVEIRDQ”, “DEKRVEELARKLFKYIINGDQEKVKTLLKPNVEYNYIDTQYKGPDAAVTMAQEVKKVGAEVKVREEKVEGNTAEVVFQYRVGDNTMQTKAQVHYEGDKVKEVRVELSEEVKKVVHQG” is higher in protease stability score: -0.189 for the first, 0.124 for the second.

Going from “DEKRVKELADKIFKDIINGNEEVVRKLGDPDVRYEYLDKKFRGEEAMIFIVQVVKRVGAEVKVERKEVRGDTAKADFRYRKGDTEVKTTAEVIYEGDKLKEARVHLTDEVKKVMTQG” to “DEKRVKEMVKKIFEVIKKGDEDKIVKQLMPNVEYHYIDQKFEGEDAARHIVKIVKHIGAEDREKKHEVNGDTMTVVFVYHNGDKTIQTKATVTYEGDVVKKAEVRLDDEVKKLARKG”, the protease stability score rises from -0.006 to 0.088.

Going from “DEKRVRRFAHKFIEVIERGDEHELRNLMDPDASMRVGDRTIHGRDEAARTIMKFLKRVDNLEVKSYDAQGDKVDIKVRASHDGKEHRITFDVKVHNGHIRHVTVKID” to “DEKRYEELVKKAFDVIRNGNEEEMRKLGKPDVEYKYADKEFEGEEAMQTMVQVVKRIGAKVEIQHEEVHGDTAHAVFVYKKGNRTAQTTVKVVYEGDKLKKAEVKMTDEVRKVLHDG”, the protease stability score falls from 2.64 to -0.024.
